Source: publication PMC3033224 (Nature chemical biology, 2010)
Positions of bridges follow the written chain, without caps; N, C: chain ends. Non-standard residues stand in square brackets, D forms with d. No end group written: not given here. *: point of attachment. FITC = O=C1OC2(c3ccc(O)cc3Oc3cc(O)ccc32)c2ccc(NC(=S)*)cc21; S5 = C=CCCC[C@](C)(N)C(=O)O; Nle = CCCC[C@H](N)C(=O)O; βAla = NCCC(=O)O

Biological target: recombinant human MCL-1ΔNΔC (amino acids 172–320) (human, UniProt Q07820 172-320)
Assay: fluorescence polarisation

Chain of recombinant human MCL-1ΔNΔC (amino acids 172–320) (Q07820 172-320, stated change not applied): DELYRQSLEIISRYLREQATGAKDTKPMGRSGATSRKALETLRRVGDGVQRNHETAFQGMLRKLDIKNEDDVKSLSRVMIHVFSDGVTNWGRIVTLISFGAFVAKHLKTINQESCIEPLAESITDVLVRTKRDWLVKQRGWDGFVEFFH

Kd | Binder
≤ 50 nM | {FITC-βAla}-DIIRNIARHLA[S5]VGD[S5][Nle]DRSI (staple 12-16) [FITC-BID SAHBA]
≤ 50 nM | {FITC-βAla}-QWAREIGAQLR[S5][Nle]AD[S5]LNAQY (staple 12-16) [FITC-PUMA SAHBA]
